According to PMC10247727, “Stabilization of pre-existing neurotensin receptor conformational states by β-arrestin-1 and the biased allosteric modulator ML314” (Nature Communications, 2023):

Molecular target: T1, enNTS1ΔM4 (minimal methionine variant of the thermostabilized rat neurotensin receptor 1 variant enNTS1) (rat, N262^5.63R (stands in the printed letters) | K263^5.64R (stands in the printed …))
T1 construct: residues left before the receptor after HRV 3C cleavage (so in the source); enNTS1ΔM4: rat neurotensin receptor 1 thermostabilized by directed evolution (enNTS1), four of the ten methionines removed; linker, C-terminal Avi-tag and the rest of the HRV 3C site, as printed (the Avi-tag is named under tags too); In DDM micelles; 13CεH3-methionine labelled or unlabelled; also called …
T1 chain: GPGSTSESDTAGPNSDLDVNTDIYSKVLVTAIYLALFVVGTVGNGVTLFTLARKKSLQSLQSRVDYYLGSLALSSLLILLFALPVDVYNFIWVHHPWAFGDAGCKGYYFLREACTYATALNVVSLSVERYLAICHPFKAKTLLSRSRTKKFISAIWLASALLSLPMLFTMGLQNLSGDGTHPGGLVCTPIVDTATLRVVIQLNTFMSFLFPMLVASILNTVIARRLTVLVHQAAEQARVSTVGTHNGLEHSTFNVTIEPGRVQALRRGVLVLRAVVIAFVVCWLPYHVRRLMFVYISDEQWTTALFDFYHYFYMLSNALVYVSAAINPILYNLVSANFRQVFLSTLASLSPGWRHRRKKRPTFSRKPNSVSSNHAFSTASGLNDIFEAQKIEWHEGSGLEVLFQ
Test: NMR (1H-13C HMQC spectra); 66 μM [13CεH3-methionine]-enNTS1ΔM4 with 500 μM ML314 (no NT8-13), 130 μM PIP2 and 2.3x molar equivalents βArr1-3A, 298 K
Conditions: both partners purified

B1: βArr1-3A (pre-activated cysteine-free human β-arrestin-1, I386A/V387A/F388A), tags removed (natural protein)
chain: GPSGDKGTRVFKKASPNGKLTVYLGKRDFVDHIDLVDPVDGVVLVDPEYLKERRVYVTLTVAFRYGREDLDVLGLTFRKDLFVANVQSFPPAPEDKKPLTRLQERLIKKLGEHAYPFTFEIPPNLPSSVTLQPGPEDTGKALGVDYEVKAFVAENLEEKIHKRNSVRLVIRKVQYAPERPGPQPTAETTRQFLMSDKPLHLEASLDKEIYYHGEPISVNVHVTNNTNKTVKKIKISVRQYADIVLFNTAQYKVPVAMEEADDTVAPSSTFSKVYTLTPFLANNREKRGLALDGKLKHEDTNLASSTLLREGANREILGIIVSYKVKVKLVVSRGGLLGDLASSDVAVELPFTLMHPKPKEEPPHREVPENETPVDTNLIELDTNDDDAAAEDFARQRLKGMKDDKEEEEDGTGSPQLNNR
notes: residues left after HRV 3C cleavage (so in the source); human β-arrestin-1, cysteine-free, 3A mutant; Used in the NMR experiments, unlabelled or [U-15N,13C,2H]-labelled; also called hβArr1-3A; βArr-3A; source: E. coli BL21(DE3), purified (Ni-NTA, HRV 3C cleavage, HiTrap Q, SEC); not shown: His6, N-terminal, cleaved; Protein C tag, N-terminal, cleaved
  binding result: binds
